Tests used:
[1] = target: human FcRn (human) (UniProt P55899); assay: BLI; pH 6.0
[2] = target: MD65 IgG-YTE (human); assay: BLI

Row | Kd [1] [nM] | fold change of affinity (steady state) against MD65 IgG [2] [fold] | fold change of on-rate against MD65 IgG [2] [fold] | Substance
1 | 20 | – | – | MD65 IgG-YTE
2 | – | 10 | 3 | human FcRn (from UniProt P55899 24-297) (receptor)

Reference: PMC7878817
